In patent US20170306001A1 one finds IC95, HApp neutralization and IC50, entry of HA-pseudotyped lentiviral particles into MDCK cells (luciferase) data, which are given here for one molecule.

For experiment [1], the target named is native H5 HA from multiple H5N1 clades. Description: cell-based or functional assay.
Experiment [2] has as its target DL06-HA, full length HA of A/duck/Laos/3295/2006(H5N1) (clade 2.3.4) (influenza A virus A/duck/Laos/3295/2006(H5N1)). Briefly: cell-based or functional assay.

B1: Mouse MAb 9F4 (antibody, V domains shown)
VH: QQSEAELARPGASVKMSCKASGFTLTTFTIHWVKQRPGQGLEWIGYINPRSGYTDYNQKFKDNTTLTVDKSSSTAYMQLSSLTSEDSAVFYCARSYYDYDVFDYWGQGTTLTV
VL: DVQMTQSPSSLSASLGGKVTITCTARQDINKYIAWYQHKPGKGPRLLIHYTSTLQPGIPSRFSGSGSGTDYSFTISNLEPEDIATYYCLQYDNLVTFGGGTK
Take B1: the IC95, HApp neutralization in experiment [1] amounted to 0.1 µg/mL. The IC50, entry of HA-pseudotyped lentiviral particles into MDCK cells (luciferase) in experiment [2] came out at 0.01 µg/mL.
